Results taken from the DeepSol protein solubility set.

Test: soluble on expression in E. coli; label from the status in PepcDB or PDB records

Row | Sequence | soluble on expression in E. coli
1 | KPYPYQQDMLESLQAEREQHNRHRNLLVAATGTGKTVVAALDYRSMCDALGRRPRLLFIAHRKEILQQALRTFREVLSDGNFGELLVDGVLPKEWTHVFASIQSLNTSRMEALGKDHFEFIIIDEFHHAQAISYRKVMDYFEPQELLGLTATPERG | not soluble
2 | MPKIYTKTGDKGFSSTFTGERRPKDDQVFEAVGTTDELSSAIGFALELVTEKGHTFAEELQKIQCTLQDVGSALATPCSSAREAHLKYTTFKAGPILELEQWIDKYTSQLPPLTAFILPSGGKISSALHFCRAVCRRAERRVVPLVQMGETDANVAKFLNRLSDYLFTLARYAAMKEGNQEKIYMKNDPSAESEGL | soluble
3 | MKSYQPKSLLNDLQYYITPPHDCSYLDNKSARMVFLDPIHRIDVVTLSELSRVGFRRSGDFVYRPECHLCRQCLSCRVPVHDFNMNSLQKKAWKRNQDLRMSIVPTHAATSVHYQLYERYINERHADGDMFPPSLDQFEKFLVHSCTESFFLELWKDDRLICVSTCDLMDDGLSAVYTFFDPDENRRSLGVFAILKQLEYVKSIDLDYLYLGYWVPHSQKMNYKSQYIPLELLLDGQWRRLNRALSQEEISQLGESLMTILPSEWNSMIIKLEHHHHHH | not soluble
4 | MGSDKIHHHHHHMKILIVDDEYRKVEEIFNVLADAGISCAGVKHETTAQAARILLRRQDYDLLIIDLHLPAAIGGKPDNEGGITFLDMIRLDEKVKLPASVLFITGREELIESAYTKVIERGAILCQYHSDSDEWKKILIGRAKYDSQRLARDEQVDVVIVTALRNPELDAVLNLPYQWIQKRIKDDPLTYHYGKIPRIDSNISVVAVSPNRKGMPSSAAVASKLALMFKPKILLMVGICAGIRDKCSLGDIIVADPTWDWGSGKHGLDSNGSPVFHAAPRQVPLNSALSQVASDLANDESVMNGIRKGWSEEVPGGKLKVHIGPMASGASVIADDRSARLIAIQQHRELIAIEMEAYAVMAAAEYTSIPNLTAMIIKSVCDFADAEKNDTWQKYASYTSAAFADQLFRNSNISV | not soluble
5 | VTSSPFKTIKSDEIFAAAQKLMPGGVSSPVRAFKSVGGQPIVFDRVKDAYAWDVDGNRYIDYVGTWGPAICGHAHPEVIEALKVAMEKGTSFGAPCALENVLAEMVNDAVPSIEMVRFVNSGTEACMAVLRIMRAYTGRDKIIKFEGCYHGHADMFLVKAGSGVATLGLPSSPGVPKKTTANTLTTPYNDLEAVKALFAENPGEIAGVILEPIVGNSGFIVPDAGFLEGLREITLEHDALLVFDEVMTGFRIAYGGVQEKFGVTPDLTTLGKIIGGGLPVGAYGGKREIMQLVAPAGPMYQAGTLSGNPLAMTAGIKTLELLRQPGTYEYLDQITKRLSDGLLAIAQETGHAACGGQVSGMFGFFFTEGPVHNYEDAKKSDLQKFSRFHRGMLEQGIYLAPSQFEAGFTSLAHTEEDIDATLAAARTVMSAL | soluble
6 | MAHHHHHHMRLRSPCGVKGIAADALVDLVQSCYPSATVLFTSVANNVAAADNSELRISSSLDAWQAKLHTRRAWRQGLSVDTPGFQRILARRHIVPARSAEAAASSWWALLYAADATNRPRVALPRQPSQSLPPSHIAHPILCCPDAIVYIGGVEVRDVTQVVAPTLVDAVTRVEAPHSTVGAASATHRAERQAPSYCRRRVDWPTVWADKRCAMRGADLLELSLAVPSDLGHRHADVRERVLVSIANPDVTLADLQRQPHAGRRGPLRTSFGFSLPCVQAALPAAVIRAVRVLRRWQRDVAHCIPSTSAFWVSSIGHLLETSVGDAASPLTQWAEACTRQEQELGMSETQMRHLFAIVQPDSDQTSTRVPLPEDATKLLTFLLTSTVLQLACTSPLEAWNGTNYFLPAERFDGTTDAEVLLRTMRSVAGTHLTFPIFSSLYGSPCGAEQGPLSQSSP | not soluble
7 | MGSDKIHHHHHHMLVFFKERLVLLSVPKTGTTAYQTALRARADIVVSDPPELKHAPIYRYDRFFRPIFEKMFGVEMEIMAVVREPVDWLGSWYRYRRRPFMQGKPNATHGLSFDDFVTAYMQGKRPGFANVGSQARFLTPRPNGCTVSHLFKYENQPGIRAFLQDRLQTEIAPPRENVSPDLPLDLSPEIAERLRRKCAEEFDLHASAT | not soluble
8 | SNAMKQIIDIENWERKENFNFFRHFQNPQLSITSEVECGGARQRAKAAGQSFFLHYLYAVLRAANEIPEFRYRIDPDGRVVLYDTIDMLSPIKIKENGKFFTTRFPYHNDFDTFYQEARLIIDAIPEDGDPYAAENEEVADGDYGLILLSATPDLYFTSITGTQEKRSGNNYPLLNAGKAIIREGRLVMPIAMTIHHGFIDGHHLSLFYKKVEDFLK | soluble
9 | GPGSMAPALCFTCMQPSRWTREGLPLILPLFQHLSPLSPFPNPSCNGISMCCTHTHTHTHTHTHTHTHAHTRLHLFQRFCFVNAIDFYELGAKSTRRVHGKVIIAARSRAPAMPPPAAAVSSSPSSSAAPMAVVYVRRDGRTALELRGKEMKLSDMTTFDGSSWYAQGQTAVMVSIHGPTIAKNDEYDTCIVQVRIQHAGVLAPAAGGAEKALYEERKLELLTRTDALALGSLLESTLNAVFLRERFPRCVLVVDVIVVRDDGSLPAVALNAVMSALLDAGLPCRTTMAAVCVAVLTHDGGADSNSGPAPDRHSSVEGSSSAGSVYEYLLDPTSAEESLGVGYAVPASSAAEKAAVTGASSVATSSAAPMSLRGGNAAQQVQGQYRCVSTGVFAFSNPACGGGLLAQLVRSVGSGSAEMCGPGVSVQAYAEMVALAERASAVLFEFFRQCNVAE | not soluble
10 | MGHHHHHHGGHMSLTVPDFQAFMRPMLEQISSGEPQKIAELYRRLAEFFALTPQDTEELLPSGKQAKYHNRILWAKFHLDRAGVLTTPSRGVVQITPLGREFLSRYPEHIGMRELQTIPAYAEFTRRSRSPAQSPAPAAPPQAECSASVPPAEQIDALYAELTANLAEELLAQVKELSPAQFERLVVEVLVAMGYGGSVRDAGQALGRSGDNGIDGLIKQDPLGLDRIYLQAKRWKNTVHSPEIRTFSGSLTYHKATKGVFITTSGFSDGAKATAGQIGNIILLDGETLAHLMIEYGVGVLTRETYQIRRLDADYFEELEGGS | soluble
11 | MLKELEVNGKRFFLAPESNFWAIGEREEVERFYRERKDALLEEMQRYRFEVDIRTAYINPTESCNRNCPYCYIPAEIRERGTKMSYEKLEEILTVLAENGVERVIFHGAEPLMVKDEIFRAMEDFDFKYGIQTNATLLEEEDAELLMKKGASVGISLDSPYKETNDYLRGKGHYDAVMRALDFFDGYRSLNIIMTVNKHNFQHLPAMVDFLAGKVSVMLANPVRGTSPGGRELRPPEGFEDYYIKAIDRAIENTKSGRRIVIGDFANILLGLVAPTSRVLQCDISPCGGGRRFFAVSADGIYPCGEFIGMEEFRANLSALSDWSSLIEKFEVVRKRTVEQIEECRNCEFRNLCGAPCPAEIYAESGTMLRKSPYCEFYKKLALKAMDVIARGDVRNVLKLERMKAIYRVEDF | not soluble
12 | MNNYTIKDITRASGGFAMLAVDQREAMRLMFAAAGAKTPVADSVLTDFKVNAAKILSPYASAVLLDQQFCYRQAVEQNAVAKSCAMIVAADDFIPGNGIPVDNVVLDKKINAQAVKRDGAKALKLLVLWRSDEDAQQRLNMVKEFNELCHSNGLLSIIEPVVRPPRCGDKFDREQAIIDAAKELGDSGADLYKVEMPLYGKGARSDLLTASQRLNGHINMPWVILSSGVDEKLFPRAVRVAMEAGASGFLAGRAVWSSVIGLPDTELMLRDVSAPKLQRLGEIVDEMMAKRR | soluble
13 | MTVTAPNALNFECETGNYHTFCPISCVAWLYQKIEDSFFLVIGTKTCGYFLQNAMGVMIFAEPRYAMAELEEGDISAQLNDYEELKRLCLEIKRDRNPSVIVWIGTCTTEIIKMDLEGLAPKLEAEIGIPIVVARANGLDYAFTQGEDTVLAAMAARCPTSTAISDPEERNPIQRLLNFGKKKEEVQAQSSQYHPHPPLVLFGSLPDPVVTQLTLELKKQGIKVSGWLPAKRYTELPVIDEGYYVAGVNPFLSRTATTLIRRRKCQLITAPFPIGPDGTRTWIEQICATFGIQPQGLAEREAETWQKLSDYLELVRGKSVFFMGDNLLEISLARFLIRCGMRVLEIGIPYMDKRYQAAELALLSQTCAEMGHPLPTIVEKPDNYNQLQRIKALQPDLVITGMAHANPLEARGISTKWSVEFTFAQIHGFGNARDILELVTRPLRRNQALAGLGWQKLVAH | soluble
